Results from paper PMC8727025.

Target: Arf1 Arf1-del17, lacks the first 17 amino acids (UniProt P84077)
Test: GFP-GBF1 beads incubated with purified Arf1-del17-His
Conditions: reference: wild type

Chain of Arf1 Arf1-del17, lacks the first 17 amino acids (P84077 whole entry, looked up): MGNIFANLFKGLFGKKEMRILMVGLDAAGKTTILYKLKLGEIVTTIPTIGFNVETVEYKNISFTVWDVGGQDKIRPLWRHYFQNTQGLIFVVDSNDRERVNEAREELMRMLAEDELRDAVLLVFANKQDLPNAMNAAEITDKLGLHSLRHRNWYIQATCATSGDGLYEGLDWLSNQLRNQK

other: percent reduction vs wild type (sites Y876) | other: percent reduction vs wild type (sites Y898) | Substance
40% |  | GBF1 (from UniProt Q92538-1) Y876F
 | 60% | GBF1 (from UniProt Q92538-1) Y898F
